Test: soluble on expression in E. coli; label from the status in PepcDB or PDB records

Row | Sequence | soluble on expression in E. coli
1 | MGSDKIHHHHHHMIVEKVLIVDPIDGEFTGDVEIEEGKIVKVEKRECIPRGVLMPGFVDPHIHGVVGADTMNCDFSEMEEFLYSQGVTTFLATTVSTSLEKMKEILRKARDYILENPSTSLLGVHLEGPYISKEKKGAHSEKHIRPPSERELSEIDSPAKMLTFAPEIESSELLLRLVKRDIVLSAGHSIATFEEFMKFYKEGVKRITHFPNGLKPLHHREIGITGAGLLLDDVKLELICDGVHLSREMVKLVYKVKKANGIVLVTDSISAAGLKDGTTTLGDLVVKVKDGVPRLEDGTLAGSTLFFSQAVKNFRKFTGCSITELAKVSSYNSCVELGLDDRGRIAEGTRADLVLLDEDLNVVMTIKEGEVVFRSR | soluble
2 | MGSDKIHHHHHHMKAIVFGGSGFIGSHIVNSLEADSVAYYSLEKGTNVKRNDAVWIQGDVTDYSKVEASMAGYDTVFFAVEDWAADEARNREILLNGIKNVVSAIKKASTDQKLVSFSMINQPSYPLEYFRTKRLVEDNTRVLKNGLVVRLSIVFGDGDHFTDRFVKLAEQVSHLPEEGNLAPVYVGDVVTVVNSIIKREGVYDICSNDNLPLIRIINYIRKNIGKKEIGSVKLEKGLSMLTETGLFSRYEAELMFQDYYRETSILDRYVKNPTSYLDFLRSILVEHTT | not soluble
3 | MGSDKIHHHHHHMKALIFDVDDTLYDQIQPFERALERHIEVAREQIEPLYLSFRRYADEVFEATAIGKMSLKDSHIYRMKHALADFGYQVSDATALAIQIDYDYFQGQIELSPVFPEIFSWCQAQGIAMGIITNGPYRHQLRKIRTMGLVNWFELEHVLISGQVGITKPNPAIFQLMEERLGMSGEDICYLGDSFENDVVGAKAANWKAIWFNHRKRVEPTAPYYAYYVVTDWDELVEVIQSF | not soluble
4 | MGSDKIHHHHHHMKAPEGIACGKRQLVVSDTGGGRLLSYSIENGSVRGGTEIKAEQVPYPTKVQLTSKGEILVIDGKLRRIAHFSPEGSFAGYLDLKGVPAPATIAPRGIRVDDKDNIHILDIFGARVIVTDAAGTFQSQMPFPEGYRFISDLAVSASGTTLLLDSVASRVYAAARGETAFKPLTDGMKEYLQFPTSIATDKQGKIFILDQTGNAVVTLGQDGSFQGRQLNIGWKNSFLHYPSQLCISEENDIDVVIADRNNNRIQVFRVVR | not soluble
5 | MGSDKIHHHHHHMKASCYGSVGMAAMVAANLGEALKIFEQFIGSRCDAFKPELKQEQNDVYWSIHQPLKSFQLSSDATIFLLLGFIHIAKHLTGLSALGTVQLNMPEPIGFSKIKDKLGVSFLFDQKHNIWIFPKEYLMQPVLTADPMLAPLLKAQCKKDIDKLKLRSGWKAEISQVIKKLLINSQGEILKVKQVAQMMNMSERSLQRYLAIENTSFSALVDLTRKQYAQELLQNSLMSIESVALSLGYADTSHFTRAFKRWMGVTPKYYQTQLKLKNLEIRE | not soluble
6 | MGSDKIHHHHHHMKAVIFDDFGSPDVLRIADVQRPVATTATVLVKVMAVAVNHVDTFVRSGTFKTALAAPHVAGRDLVGEVVASSQPDFQIGDQVWTNSMGYEGRMGATAEYVAVPTDRLYHVPDGVAPMPLVAAVHSAATAAIVLNDVMEICSGQTLLIEGAAGNVGRKLIQLAHQMGVTVVITASPRDFARCQQLGSTACYDYHAGFADQLTTDQWTFDHVIDTSGRVPLAINLALLRLGGQVTLITAPQDNQFEFPVRQFYMSQQRITGFVISHATVDQLAQAASRLNRAFSAGLLLDDQVSQRYFKDAAQCHAQLEAGTDHHQRFVLLPS | not soluble
7 | MGSDKIHHHHHHMKAYYHLPGLFEFYELYKEFLPLYRKHREYFYDWCDIGSIYGAPADCIWGGGRVGFGEHDLKEVLKLMQEYGISARLTFSNSLLTKEHLPDKKCNELCRIFDIGRDNERSRGFGNGIIIYSDILLDYIKENYPDFYFVSSTTKVLTDFSEFKNELNREEFRYVVPDFRLNKSFDNLKALSQHQKEKVEFLCNECCWFGCTDRKKCYETVSRKNLGVDCPEHYCVAPDSGQGYLFSKAMENPGFIGVYDIKNTYLPMGFSNFKIEGRGLGSAMILEFLLYYMTKPQYQIHVREHIYLDNMLDLF | not soluble
8 | MGSDKIHHHHHHMKCPTETLPMMRCNQILDAAERLIESQGIVSFKFSQLAKEVGCSTGTLYKFFERKEDVLVCLFLRSATSNHLPIFIDKHPELSELEKVLLPVLFTFETISRSKSFFTLRSVSVNTMVWQLASDEKVERFKKRINAFWGWFTDSLHAAVEQGELQATPLQIKELVQGLTFYLTGSLTQFESQLIAPEYLSNRRETCYRHLAKLMGQYKWNQALTPELFDSLEARTKAFFDQHYRDHMTCAACSALSGVNLKDRPACVRQAYQ | not soluble
9 | MGSDKIHHHHHHMKEISCGRRTRVSFGKSREPLPIPDLVEIQKSSYRRFLEEGLLEVLKKFSPIYSQATRSDLRKSDRGFALEFVSTRTGEPAIDPLECKAKGLTYSVPIYATARLTDMKSGEMKEEEVFLGYIPYMTDRGTFIINGAERVVVNQIVVSPGLYFSSEYIDREEYGGYFLPSRGAWLEVILDPYDGVLYAGLDGKKVNLFLFLKTIGYEKDEDILSLYPTYLDADDEDSLLLHVGSILLEDIYDGGRKIAEKWDILTKDLAERILMIDDINQIKIVHPIAQNTFEKMLEVVSSSSEEGEEEEEKTKIYGLNEVTVVDAYLEIFRRLRPEELPRINAAKRYLHDLFFNPERYDLSEVGRYKVNERLRNAYIRYLIEVEGEDPEEARKKVYNETSLVLKPLDIVLASRILFDYFERRYVNDFEIDSYELKNLIRIFKEEYLEKRKTAPYDLRKLVSVFRRNYGVTSDLGVFAAIRYVSNINKELPSIPFDTKDHLGNKRVRTVGELVQREFERLFARAQKAIQERLTLINSLSKVSIQSLINIKSIISTVNQFFAMNQLSQFMDQVNPLSELTHKRRVSAVGPGGLRRESKVFEARNVHYSQYGRLCPIETPEGANIGFITSLAIYAKIDEYGFLMTPYRKVVNGKVTDEVVYLRANEEEEYKIIPATTPVDEEGNIIPERVVARMGEDIRLVPKEEVDFMDVSTKQPFSVSASLIPFLEHDDASRALMGSNMQRQAVPLLKTEAPLVGTGMEWEAAKNSGYVILAEHDGIVKEVDAARVVVHRTDENGNLMYDDKGNPVVDEYRLLKFVRSNQDTMINQKPIVNEGDFVKKGDPIADGPATDMGELALGRNILVAFMPWEGYNYEDAILVSQELLEEDVFTSIHIEVYETQARETRLGPEEITADIPNVSKELLKNLDENGIIRVGAYVVSDYGVGSQAILVGKVTPKGEGDTTPEEKIIRSVFGERGRDVKDTSLRLPHGVEGRVIRVDVYDQNDIAELGAGVLKLVRVYVASRKTLDIGDKLAGRHGNKGVVSNILPKEDMPFLPDGTPVQMVLNPLGIPSRMNVGQILETHLGWLAKLTGKWFATPVFEGAKEDEILRPLYEERKKRGLHLGDDENNPNGKVVLRDGRTGEPFDNPVVVGYMYMLKLIHIAKEKIHARSTGPYSLIHQQPLGGKSHFGGQRLGEMEVWALEAYGAAHTLAEMLTIKSDDIKGRNEAYKAILKNMNIPEPGVPESFRVLIKELRGLALDVRLYDENGNEIDIDKY | not soluble
10 | MGSDKIHHHHHHMKFIVSSTALFSHLQAVSRVINSKNALPILDCFLFQLEDGTLSVTVSDSETTMVTSVEVNESDSNGKFAVAAKTLLDALKEIPEQPLTFDIKPDTYEITVQYQNGKYSLMGQNADEFPQSATLGDNAVRVEMEAQILLGGINRSVFATADDELRPVMNGIYFDITTEDITMVASDGHKLVRCKTLAARGNERAAFILPKKPATLLKNLLPKESGMVVIEFDERNAVFTLESYRMVCRLIEGRYPNYNSVIPQNNPHKVTVDRMQLMGALRRVSIFSSQASSLIKLRMQENQIVVSAQDIDFSTSAEETQVCQYAGAAMSIGFKSTFLIDILNNISADEVVIELADPSRAGVIIPVEQEENEDLLMLLMPMMLND | not soluble
11 | MGSDKIHHHHHHMKFLNVIFKGHSISELIQEVIYVFIGYFFLMISYCTPRNKKKWVFGNKKIFKDNTKYLFIYMQEQHPEIQTIWITSSRRLVKRLRALSYSAYYKYSLKGLYHSLTAGVYVSTVNSNHINFFTSGRVFNVNLWHGISLKAMVDNKAVPADRSFLSRVCMPYVYEQYGLFFSTTPTIDDQYLRFFRFDPQVLYHGMSPRCSFMMMDHERLLRYIEEKEDPLMLDIIHTSRKYNKVFVYMPTWRINYGTHFMDYAFPDLYALNKAFSKINAILLLKLHPSMTYDAFKYKDLKHIYYIDANIDLYPILPFTDIMISDYSSIWYDYLLLPNKGVIHYDFDVDSYAKNEFGFFRDYKTFTPGVHASDFKQLLATIESSSSLQISEERRTWILDEMWGKGRSTNNEDLIKEICKRVEQVL | not soluble
